Test results: publication PMC6251626

Target: αβ-tubulin heterodimer purified from porcine brains (porcine) (UniProt P02550)
Assay: ITC; DRP or DRPΔN (135-250 μM) injected into αβ-tubulin (20-40 μM); 25°C, 50 mM HEPES pH 7.3, 100 mM KCl, 1 mM MgCl2, 50 μM GDP

For “DRPΔN (DARPin D1 without its N-terminal ankyrin repeat) (designed binder)”, the Kd was 461 nM.
